Results: PMC3173232

Key:
XLF FL = XLF FL (Homo sapiens, UniProt Q9H9Q4 1-299); experiment: tryptophan fluorescence quenching
XLF(1-248) = XLF(1-248) (Homo sapiens, UniProt Q9H9Q4 1-248); experiment: tryptophan fluorescence quenching
XRCC4 FL = XRCC4 FL (Homo sapiens, UniProt Q13426 1-336); experiment: tryptophan fluorescence quenching
[1] = target: Ku70/80 heterodimer;XLF FL;XRCC4(1-140) (Homo sapiens (HeLa);Homo sapiens;Homo …, UniProt P12956;P13010;Q9H9Q4;Q13426 2-609;2-732;1-299;1-140, ||); experiment: SEC co-elution and SAXS
Chain of Ku70/80 heterodimer;XLF FL;XRCC4(1-140) (P12956 2-609, chain 1 of 4): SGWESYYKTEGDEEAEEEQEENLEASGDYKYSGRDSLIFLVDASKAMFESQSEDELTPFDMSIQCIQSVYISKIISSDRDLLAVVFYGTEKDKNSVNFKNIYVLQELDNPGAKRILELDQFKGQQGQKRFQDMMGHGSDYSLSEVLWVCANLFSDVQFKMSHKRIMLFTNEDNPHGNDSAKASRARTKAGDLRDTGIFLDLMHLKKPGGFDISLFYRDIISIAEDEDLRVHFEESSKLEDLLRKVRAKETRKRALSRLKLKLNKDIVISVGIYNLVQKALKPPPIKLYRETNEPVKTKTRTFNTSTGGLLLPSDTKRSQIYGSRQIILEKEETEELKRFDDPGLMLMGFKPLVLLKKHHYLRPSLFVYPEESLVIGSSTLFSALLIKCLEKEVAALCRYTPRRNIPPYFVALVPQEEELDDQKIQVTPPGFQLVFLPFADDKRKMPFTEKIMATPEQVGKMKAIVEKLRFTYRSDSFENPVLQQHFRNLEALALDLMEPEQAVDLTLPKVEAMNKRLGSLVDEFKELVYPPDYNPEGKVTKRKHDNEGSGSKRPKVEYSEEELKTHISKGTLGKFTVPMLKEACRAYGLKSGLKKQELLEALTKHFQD
Chain of Ku70/80 heterodimer;XLF FL;XRCC4(1-140) (P13010 2-732, chain 2 of 4): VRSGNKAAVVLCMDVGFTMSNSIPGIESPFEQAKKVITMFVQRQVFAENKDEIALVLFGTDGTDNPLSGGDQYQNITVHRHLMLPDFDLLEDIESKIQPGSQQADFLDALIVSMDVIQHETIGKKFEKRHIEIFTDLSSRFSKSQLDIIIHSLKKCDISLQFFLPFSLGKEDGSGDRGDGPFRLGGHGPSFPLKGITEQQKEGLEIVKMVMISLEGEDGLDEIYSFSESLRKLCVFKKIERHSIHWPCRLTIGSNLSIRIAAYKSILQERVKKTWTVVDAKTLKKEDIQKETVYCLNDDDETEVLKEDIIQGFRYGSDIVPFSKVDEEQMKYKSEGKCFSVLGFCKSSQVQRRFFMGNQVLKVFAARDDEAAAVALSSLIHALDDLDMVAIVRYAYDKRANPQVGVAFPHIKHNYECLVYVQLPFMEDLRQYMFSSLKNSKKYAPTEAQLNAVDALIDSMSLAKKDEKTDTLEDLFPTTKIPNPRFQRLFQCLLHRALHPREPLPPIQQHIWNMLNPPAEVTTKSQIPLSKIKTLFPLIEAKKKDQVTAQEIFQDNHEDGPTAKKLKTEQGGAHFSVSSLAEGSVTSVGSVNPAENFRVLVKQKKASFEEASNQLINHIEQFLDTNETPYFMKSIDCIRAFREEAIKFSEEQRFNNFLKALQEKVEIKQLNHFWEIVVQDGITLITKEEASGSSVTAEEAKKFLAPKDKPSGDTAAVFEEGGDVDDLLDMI
Chain of Ku70/80 heterodimer;XLF FL;XRCC4(1-140) (Q9H9Q4 whole entry, chain 3 of 4): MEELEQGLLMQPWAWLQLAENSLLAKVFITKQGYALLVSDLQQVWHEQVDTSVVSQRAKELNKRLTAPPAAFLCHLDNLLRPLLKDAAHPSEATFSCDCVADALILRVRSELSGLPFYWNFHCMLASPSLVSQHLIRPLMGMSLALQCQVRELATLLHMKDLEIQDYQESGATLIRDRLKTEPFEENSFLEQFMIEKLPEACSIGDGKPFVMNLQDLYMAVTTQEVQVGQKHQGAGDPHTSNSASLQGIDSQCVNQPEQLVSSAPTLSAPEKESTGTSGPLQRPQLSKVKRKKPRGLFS
Chain of Ku70/80 heterodimer;XLF FL;XRCC4(1-140) (Q13426 1-140, chain 4 of 4): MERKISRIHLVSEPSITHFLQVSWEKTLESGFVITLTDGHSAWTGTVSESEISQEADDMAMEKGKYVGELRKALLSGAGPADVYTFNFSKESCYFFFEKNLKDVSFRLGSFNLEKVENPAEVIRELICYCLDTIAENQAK

XRCC4 FL;XLF(1-248) = XRCC4 FL;XLF(1-248) (Homo sapiens;Homo sapiens, UniProt Q13426;Q9H9Q4 1-336;1-248, |); experiment: tryptophan fluorescence quenching
Chain of XRCC4 FL;XLF(1-248) (Q13426 whole entry, chain 1 of 2): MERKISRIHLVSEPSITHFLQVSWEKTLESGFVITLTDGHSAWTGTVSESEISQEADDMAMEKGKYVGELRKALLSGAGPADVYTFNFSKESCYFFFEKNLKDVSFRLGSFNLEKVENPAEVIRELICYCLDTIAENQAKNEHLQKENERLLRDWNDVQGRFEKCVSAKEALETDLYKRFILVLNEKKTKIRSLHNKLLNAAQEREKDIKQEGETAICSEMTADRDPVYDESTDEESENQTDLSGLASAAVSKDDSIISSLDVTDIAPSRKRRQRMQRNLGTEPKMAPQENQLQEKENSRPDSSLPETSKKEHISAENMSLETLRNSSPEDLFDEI
Chain of XRCC4 FL;XLF(1-248) (Q9H9Q4 1-248, chain 2 of 2): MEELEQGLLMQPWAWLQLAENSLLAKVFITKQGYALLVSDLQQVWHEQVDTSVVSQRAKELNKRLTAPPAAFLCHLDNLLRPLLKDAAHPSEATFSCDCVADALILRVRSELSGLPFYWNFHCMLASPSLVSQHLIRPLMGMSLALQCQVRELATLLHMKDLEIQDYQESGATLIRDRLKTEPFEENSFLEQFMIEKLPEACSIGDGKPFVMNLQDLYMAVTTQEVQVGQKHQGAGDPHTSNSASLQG

XLF FL;XRCC4(1-140) = XLF FL;XRCC4(1-140) (Homo sapiens;Homo sapiens, UniProt Q9H9Q4;Q13426 1-299;1-140, |); experiment: SAXS titration
Chain of XLF FL;XRCC4(1-140) (Q9H9Q4 whole entry, chain 1 of 2): as the sequence (Q9H9Q4 whole entry, chain 3 of 4) above
Chain of XLF FL;XRCC4(1-140) (Q13426 1-140, chain 2 of 2): as the sequence (Q13426 1-140, chain 4 of 4) above

XLF(1-224);XRCC4(1-140) = XLF(1-224);XRCC4(1-140) (Homo sapiens;Homo sapiens, UniProt Q9H9Q4;Q13426 1-224;1-140, |); experiment: SAXS titration
Chain of XLF(1-224);XRCC4(1-140) (Q9H9Q4 1-224, chain 1 of 2): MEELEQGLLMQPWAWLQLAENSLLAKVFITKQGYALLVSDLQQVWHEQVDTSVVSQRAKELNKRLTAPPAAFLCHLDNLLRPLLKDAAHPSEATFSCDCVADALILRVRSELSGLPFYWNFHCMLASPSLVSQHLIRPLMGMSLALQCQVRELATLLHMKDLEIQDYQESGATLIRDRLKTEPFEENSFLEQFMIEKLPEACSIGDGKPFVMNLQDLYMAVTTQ
Chain of XLF(1-224);XRCC4(1-140) (Q13426 1-140, chain 2 of 2): as the sequence (Q13426 1-140, chain 4 of 4) above

Chain of XRCC4 FL (Q13426 whole entry): as the sequence (Q13426 whole entry, chain 1 of 2) above
Chain of XLF(1-248) (Q9H9Q4 1-248): as the sequence (Q9H9Q4 1-248, chain 2 of 2) above
Chain of XLF FL (Q9H9Q4 whole entry): as the sequence (Q9H9Q4 whole entry, chain 3 of 4) above

B1: 40-bp DNA (dsDNA)
DNA 1: GGATACACAACAGACCGCAACACTCAGATTACTTTTCGCC
DNA 2: GGCGAAAAGTAATCTGAGTGTTGCGGTCTGTTGTGTATCC
Kd (XLF FL): 1600 ± 100 nM
Kd (XLF(1-248)): 2900 ± 200 nM
Kd (XRCC4 FL): 950 ± 50 nM
binding result [1]: binds
Kd (XRCC4 FL;XLF(1-248)): 700 ± 50 nM
binding result (XLF FL;XRCC4(1-140)): binds
binding result (XLF(1-224);XRCC4(1-140)): binds
